Assay: soluble on expression in E. coli; label from the status in PepcDB or PDB records

Sequence | soluble on expression in E. coli
MRPPPFPKPAHPEEALALQRALAKKVRLAGSLEGVRRIAALDASHKRGRPLVAVALLYDLEKGPLHVATALLPEEALFPYVPGLLSFREAPAYLEALAALPEAPEALLVDGQGVAHPRGLGIASHLGVHLDLPSVGVAKRLLYGRPEAPLPEEKGAAVRLLAPDGRPLGYVYRSRTGVKPLYVSPGHRVGLEEALRFVRRLPTRFRLPEPLRLAHLEAGRALKALDAAALEHHHHHH | not soluble
MGSDKIHHHHHHLDGQALKQAVTPYFAGVLHEGLSRLKAEVYQEMEEIRLRAAQPLLLKIGESEWGLTSRGELTKKLPEAINASREDLYRTIASISDNSLYALEEEIRRGFITIPGGHRVGLAGQVIVQAAGIKGIKEFSSICFRLAREKKGCARTILPHIISTGTIVNTLIISPPRCGKTTILRDIARSISTGSSACPPHNIAIIDERSEIAGTHRGLAQLDVGIRSDVLDACPKSWGMMMAIRSLSPQVLIADEIGRKEDVEALQECVNAGVAVICSIHARNLEELSKRPLIKKLLSQGAFRLGVVLSRRNGPGTVEEIIRWD | not soluble
MSSVAPSVRLFFALWPQEAVRKQLARLARRIADQCAGRCVRPENLHLTLAFIGEVDSSVVPILRQAGSAIHRTSFDLLLDKLHCWGKGSIIAAGVSQPCGELTVLVQDLRNQLSAAGVRYDTVKFVPHVTLVRNAKREPEQKHFPETIPPVAWAADRWSLVQSRPTPYGSAYQSFADWALASQDFDEHHRA | not soluble
MASEDKFESVLSTRYCKNSPLVSILSETNKATLWRQLWIWLAEAEKELGLKQVTQDAIDEMKSNRDVFDWPFIRSEERKLKHDVMAHNHAFGKLCPTAAGIIHLGATSCFVQDNADLIAYRDSIDHILKRFATVIDRLAAFSLKNKEVVTVGRTHYQTASLVTVGKRGVLWAQELLMAFQSLSEFRDKMRFRGIKGATGTQDSFLTLFAGDESKVEALDELVTKKANFSNRFLITGQTYSRQQDSQLVFSLSLLGAAAKKVCTDIRVLQAFGELLEPFEKDQIGSSAMPYKKNPMKSERCCALSRKLINAPQEALTILADQGLERTLDDSAGRRMLIPDVLLTAEALLTTLQNIFEGLSVQTDNVKKIVEDEIAFLGLEKAMMMLTEEGVDRQQAHAVIRKTALEAKQLQATQKVDIRQTMADPFFDSVRDRVVGLVNNPINFTGRCVSQTESFIAKELKPTIDKYLDKSAGNVQLDV | soluble
MAHHHHHHMTETVLRLGPQEYAHLTNLNTNTTELILGPLNRPVASHESVALPPTKFVVVPPTQYCLIANPHRTAVDPTTGIAQPVRDAYGQVQVRSGEEEYRWHVPPFPLYPEEAVVKLEDLKVLSARAALQIQVLAAYNVPACSASDSMPSPVRREAGERYSSAAPAPTTLALRSTSRRR | soluble
GNSKSGALSKEILEELQLNTKFTEEELSSWYQSFLKECPSGRITRQEFQTIYSKFFPEADPKAYAQHVFRSFDANSDGTLDFKEYVIALHMTSAGKTNQKLEWAFSLYDVDGNGTISKNEVLEIVTAIFKMISPEDTKHLPEDENTPEKRAEKIWGFFGKKDDDKLTEKEFIEGTLANKEILRLIQFEPQKVKEKLKEKKL | soluble
MFCSFFHEKKKNILRLNIRCQRLREHDNTAKIELFKSMRRRRSSTKASRKTTMGGAAELEDEWIPSETMSGAGWKARGDRKPKDKRVPFNRPTPYQIYEALPFVRRYFMYWMKHTFDKEKLFINTFQPLKHKPYYGVPCGGIGCGAIGRDFRGGFCKFSLRPGLVEHKVDVVAADQFILSVRENDRCIYQKVLSAADVQRPSGQLSTWDFKFPKKNVHYRGLFPRSWTTFRVPELELTVVIRQVSPVLPHNYEDTTYPVCLFLIDVENGGSASREYEISVAFTFRNGTGNRRWEREAECSGVKFETEEEGLKPTTTAQEKISGVSLYHTISSMPCTYGLATTHREHTTTTVCERFDPSRNGAALWNHLKQTGDVPSCEEECLINAREMAVAVCNRFTLPPNSTKTHDYALSWDMPKVHFGSVARSYHRRYTRFFEASEAGSAADSLCVRALRLKDKWESEIEAWQSPILNHKKLPDWYKSAIFNELYFITDGGTVWFEFDENWAEHETHLSHYTKDKMKEIGRFGYLESWEYRMVNTYDVHFYASFALAELWPELEITIQSEFTDQVYHSIEKPTRFHMEGDWANVKTASRVPHDLGNPADEPWIATNAYVMHDTGKWKDLNMKYVLTSWRDYVVLSNEHEDFLFHTWPAVRMIMLEALENWDQDGDGMIENFGKADQTYDAWQMEGVSAYCGSLWLASLRVAIEMAGLMKDDETQQLFRNTLEKAKKVFIDTLWTGTYFRFCERSRSRETVMADQLCGYWFLQSVSPELADELLPNHMVRSALDTIYRLNVCKFGNGRMGAVNGMKPSGVVDREYIQADEMWTGVTYAVASLLIQQGEVEKAFHTASGSYLTCFEETGLQYQTPEALYESKFYRAIGYMRPLSIWAMQWSLKKHCGMNTSEEKLPNLVKNEKVVPESEAAIQVQKQRILGDTSEDGSSLGYVSDYHDERSIPKIATLR | not soluble
MGSDKIHHHHHHMIKAIALLRRKQGLSREQFIAYYETRHAPLIRSLLPGIEDYRRNYVDRTGAFESGIAAIDFDSVTEMRFASRASYDAFLAQAADPEIARLIADDEENVFDRSATRMFVVDETPAALSPDTPSPVLIDELLAERAIRDGLARFARVLDAKAWDALGDVFAADLTFDYGLGEQVGLEALTVNMRRFLDVCGPSQHLIGSIMITVDPGLQSATSRAYVRARHQRAGNSGGPVFDSNGEYVDRWECRAEGWRIVRRDALWQTQSGEAAIIWDGSPAAG | not soluble
MQADFNRPVLAVDTGTSYLSLALRADGETCLFHQEVGSRQSALILPEIRTLFHDAGITAADLGAIVYAKGPGAFTGLRIGIGVAQGLATPFDTPLIGVPSLDAAASLPPPQSCILAAADARMGEVFYAWFDTLNRRRLSDYQVGRAADIRLPEGCAFSDGIGNAFALENRPPFSGKPDMPTAADFLNLAAEGGFPAVAAAHAELLYVRNKIALTAKEQAERRARLLEHHHHHH | not soluble
MIIDINRLDRAFDLIKEGVSKGVFPGAVAAVGTRERVIRLESFGNRCLYPEKLSMNKDTLFDLASLTKVVATNTLFMIFLEKGLISVYDNVSYYLEKFKGKNKDDVTIFNLLTHTAGFVPCKPLYKLCKGYEDSIDYICRCGLSYKPGTKCVYSDFSYILLAYILEKIGGDTLDILCDRYIFKPLYMENTTFKPKGNNIAATEIDKKTKKPLIGVCHDENGRFFGGISGHAGLFSDIYDLCKFSNMLVNEGKGIISYASFKAMTTNHTLGLEDNRGYGWCIKGDKNSFMGDIAFPETFGHNGFTGTSLWVDIKNNIYAILLTNRVHPTRDNLRIIRFRRVFSNAVLASLTR | not soluble
MGSDKIHHHHHHMQPETSAQYQHRFSQAIRGGEAADGLPQDRLNVYIRLIRNNIHSFIDRCYTETRQYFDSKEWSRLKEGFVRDARAQTPYFQEIPGEFLQYCQSLPLSDGILALMDFEYTQLLAEVAQIPDIPDIHYSNDSKYTPSPAAFIRQYRYDVTHDLQEAETALLIWRNAEDDVMYQTLDGFDMMLLEIMGSSALSFDTLAQTLVEFMPKADNWKNILLGKWSGWIEQRIIIPSLSAISENMEGNSPSQNHLSA | not soluble
MKRREVLQAGMALGGLAGLGRALAQGGFTLTLVHTNDTHAHLEPVELTLSGEKTPVGGVARRVALFDRVWARAKNPLFLDAGDVFQGTLYFNQYRGLADRYFMHRLRYRAMALGNHEFDLGPGPLADFLKGARFKVVSANVDASREPRLKGLFAPYAVVVVGGERVGIIGLTTPDTREISNPGPTVAFLDPYESAQKAVYELLAKGVNKIVVLSHLGYGEDLKLARRLVGVQVIVGGHSHTLLGSFPHKELSPAGPYPTVVKNPEGKDVLVVQAWEWGKVVGLLEVTFDAKGELLAYKGEALLMTPEAAPEDFFAKEALLAYAQPVMALMQQVIAEAKVDLVGERAVVRRRESNLGNLITDGMLWKTRNAGTQIALQNGGGIRASIPKGPITVGKVYEVLPFGNTLVVMDLKGKEILAALENGVSQWENTAGRFLQVSGLRYAFDLSRPAGSRVVRVEVKTEKGYVPLDLEATYRVVVNNFIANGGDGFTVLKEAQGYRVDTGFSDAESFMDYLKELKVVEAGLEGRIEVLNEPKGERPAYFAYRVPGLVGV | soluble
RSDTIMVLSINPKEKKTELVSIPRDTKAEIAGRGTEEKINHAYAYGGPNMAVKTIEKLMNVPIDHYATIDMDGLHDMIDTLGGVDVVSNSTFTMGANHFVKGEKTHVDGDAAMDFIRSRKEDGAGGDFGRQERQQLILEAMADKLTS | not soluble
MSLKHYDLIIIGTGSGNSIPGPEFDDKSIAIVEKGAFGGTCLNVGCIPTKMYVYAADIAQEIQESARLGIDATVNSVDWPSIVSRVFDKRIDLIAQGGEAYRRGPETPNIDVYDMHASFVDSKTISTGIAGQEQLISGTDIVIATGSRPYIPEAIAESGARYYTNEDIMRLAQQPESLVIVGGGFIALEFAHVFEALGTKVTILNRSDVLLREADADISAKILELSKKRFDVRLSTAVTAVHNKADGGVKISTDTGDDIEADILLVATGRTPNGNQMNLDAAGIEMNGRSIKVDEFGRTSVEGVWALGDVSSPYKLKHVANAEMRAIKHNLANPNDLQKMPHDFVPSAVFTNPQISQVGMTEQEAREAGLDITVKIQNYSDVAYGWAMEDKDGFVKLIADKDTGKLVGAHIIGAQASTLIQQLITVMAFGIDAREAATKQYWIHPALPEVIENALLGLEFEGHHHHHH | soluble
MTTFTHINSQGEANMVDVSAKAETVREARAEAIVTMSKETLSMIVEGKHHKGDVFATARIAGIQAAKRTWELIPLCHPLLLSKVEVNLEPLLETNQVRIQSLCKLTGKTGVEMEALTAASVAALTIYDMCKAVQKDIVIEHVRLLEKSGGKSGHFIAEEK | soluble
MSLAYQSEYALENEMMNQLEQLGYERVTIRDNKQLLDNFRTILNERHADKLEGNPLTDKEFQRLLTMIDGKSIFESARILRDKLPLRRDDESEIYLSFLDTKSWCKNKFQVTNQVSVEDTYKARYDVTILINGLPLVQVELKRRGIDINEAFNQVKRYRKQNYTGLFRYIQMFIISNGVETRYFSNNDSELLKSHMFYWSDEGHHHHHH | not soluble
MHHHHHHSSGVDLGTENLYFQSMGAASLDVIQEVEYVKEEAKMVYLLECLQKTPPPVLIFAEKKADVDAIHEYLLLKGVEAVAIHGGKDQEERTKAIEAFREGKKDVLVATDVASKGLDFPAIQHVINYDMPEEIENYVHRIGRTGCSGNTGIATTFINKACDESVLMDLKALLLEAKQKVPPVLQVLHCG | soluble
MKDPDRWMDVKEFLPLLAQKEWYTKTRFGYARGHEPVVYVQNIRRYYDVLVRITEPDAPSASGLEDQLAWLEHHHHHH | not soluble
GMSVPQRPHQFVLTLSCPSAAGQVAAVVGLLDRHRCYVDELTVFDDDLSARFFVRCVFHATDDADALRVDALRREFEPIAERFRMQWAIHDVAARPKVLIMVSKLEHCLADLLFRWKMGELKMDIVGIVSNHPDFAPLAAQHGLPFRHFPITADTKAQQEAQWLDVFETSGAELVILARYMQVLSPEASARLANRAINIHHSFLPGFKGAKPYHQAHARGVKLIGATAHFVTDDLDEGPIIEQVVERVDHSYRPEQLLAVGRDVECITLARAVKAFIERRVFLNGDRTVVFQ | soluble
MKPTAIFLMGPTASGKTDLAIQLRSQLPVEVISVDSALIYKGMDIGTAKPSKEELALAPHRLIDILDPSESYSAMNFRDDALREMADITAQGKIPLLVGGTMLYYKALIEGLSPLPSADENIRAELEQKAAQQGWAALHTELAKIDPISAARINPSDSQRINRALEVFYITGKSLTELTEEKGEALPYDFVQFAIAPQDRHVLHERIEQRFHKMIELGFQAEVEKLYARGDLNINLPSIRCVGYRQMWEYLQGDYAYEEMIFRGICATRQLAKRQLTWLRGWKTPIQWLDSLQPQQAKETVLRHLDSYQKGLEHHHHHH | soluble

Source: the DeepSol protein solubility set
